Laboratory results: patent US20240317855A1 (EUREKA THERAPEUTICS, published 2024)

Target: GPC3 (glypican-3) on HEPG2 human liver cancer cells (human, UniProt P51654 25-580)
Experiment: cell-based or functional assay

Chain of GPC3 (glypican-3) on HEPG2 human liver cancer cells (P51654 25-580): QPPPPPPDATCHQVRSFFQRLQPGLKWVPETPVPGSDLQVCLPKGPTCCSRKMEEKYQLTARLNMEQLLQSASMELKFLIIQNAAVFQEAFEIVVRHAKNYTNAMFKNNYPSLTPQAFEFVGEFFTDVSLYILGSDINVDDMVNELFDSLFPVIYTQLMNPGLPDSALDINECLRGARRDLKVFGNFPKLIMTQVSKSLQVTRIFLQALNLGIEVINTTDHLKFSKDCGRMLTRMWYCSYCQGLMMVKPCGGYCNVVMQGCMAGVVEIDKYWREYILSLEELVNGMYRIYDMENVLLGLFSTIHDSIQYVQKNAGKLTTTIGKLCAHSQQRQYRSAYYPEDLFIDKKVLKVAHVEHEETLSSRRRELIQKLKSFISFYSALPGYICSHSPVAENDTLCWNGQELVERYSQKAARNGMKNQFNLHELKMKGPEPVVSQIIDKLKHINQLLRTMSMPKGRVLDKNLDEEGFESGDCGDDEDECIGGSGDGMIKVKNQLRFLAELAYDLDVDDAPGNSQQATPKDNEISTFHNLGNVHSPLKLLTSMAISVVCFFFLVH

B1: anti-GPC3 CSR (chimeric co-stimulatory receptor: anti-GPC3 scFv fused to CD28 transmembrane and intracellular signaling sequences) (other)
chain: QSVLTQPPSVSAAPGQRVTISCSGTRSNIGSDYVSWYQHLPGTAPKLLVYGDNLRPSGIPDRFSASKSGTSATLGITGLQTGDEADYYCGTWDYTLNGVVFGGGTKLTVLGSRGGGGSGGGGSGGGGSLEMAQVQLVESGGGLVQPGGSLRLSCAASGFTFSSYAMSWVRQAPGKGLEWVSVIYSGGSSTYYADSVKGRFTISRDNSKNTLYLQMNSLRAEDTAVYYCARTSYLNHGDYWGQGTLVTVSSAAAIEVMYPPPYLDNEKSNGTIIHVKGKHLCPSPLFPGPSKPFWVLVVVGGVLACYSLLVTVAFIIFWVRSKRSRLLHSDYMNMTPRRPGPTRKHYQPYAPPRDFAAYRS
Question: B1 was tested. Which “specific killing of HEPG2 (AFP+/GPC3+) target cells by T cells expressing anti-AFP caTCR-1 (caTCR-1-0 or caTCR-1-TM5) and the anti-GPC3 CSR; Cytox 96 LDH assay, E:T 2.5:1, 16 hr” value did it give?
Answer: The value was 55 to 65%.
